Test results taken from the Immune Epitope Database (IEDB).

Tests used:
Test in all cases: IEDB peptide-MHC binding, purified MHC/competitive/radioactivity; filed as Kd, often an IC50 or EC50 that approximates it; ≥ and ≤ were set here for values at or beyond the usual limits of such assays
HLA-A*03:01 = molecular target: HLA-A*03:01
HLA-A*11:01 = molecular target: HLA-A*11:01
HLA-A*31:01 = molecular target: HLA-A*31:01
HLA-A*33:01 = molecular target: HLA-A*33:01
HLA-A*68:01 = molecular target: HLA-A*68:01
[1] = source organism: Dengue virus 2 Jamaica/1409/1983
[2] = source organism: Triticum aestivum
[3] = source organism: Dengue virus 4 Philippines/H241/1956
[4] = source organism: SARS coronavirus Tor2
[5] = source organism: Vaccinia virus WR
[6] = source organism: Lymphocytic choriomeningitis virus (strain Armstrong)
[7] = source organism: Dengue virus 1 Nauru/West Pac/1974
[8] = source organism: Mammarenavirus guanaritoense
[9] = source organism: Mammarenavirus machupoense
[10] = source organism: Dengue virus 3 Martinique/1243/1999

AIFLTTLSR
Kd (HLA-A*03:01; [1]): 61.5 nM
Kd (HLA-A*11:01; [1]): 65.7 nM

AIILHQQQK
Kd (HLA-A*31:01; [2]): ≥ 20600 nM
Kd (HLA-A*03:01; [2]): 104 nM
Kd (HLA-A*11:01; [2]): 38.2 nM
Kd (HLA-A*33:01; [2]): ≥ 77700 nM
Kd (HLA-A*68:01; [2]): 941 nM

AINVLRGFRK
Kd (HLA-A*03:01; [1]): 91.8 nM
Kd (HLA-A*11:01; [1]): 257 nM

ALAPPVNDLK
Kd (HLA-A*03:01; [3]): 48.1 nM

ALLGKKKNPR
Kd (HLA-A*31:01; [3]): 357 nM

AQPCSDKAYK
Kd (HLA-A*31:01; [4]): 1130 nM
Kd (HLA-A*03:01; [4]): 319 nM
Kd (HLA-A*11:01; [4]): 67.6 nM
Kd (HLA-A*33:01; [4]): 9490 nM
Kd (HLA-A*68:01; [4]): 6260 nM

ASAFFGMSR
Kd (HLA-A*31:01; [4]): 21.9 nM
Kd (HLA-A*03:01; [4]): 3170 nM
Kd (HLA-A*11:01; [4]): 148 nM
Kd (HLA-A*33:01; [4]): ≥ 41500 nM
Kd (HLA-A*68:01; [4]): 197 nM

ATLKNVTEVK
Kd (HLA-A*11:01; [3]): 279 nM

ATSSFREKSR
Kd (HLA-A*31:01; [5]): 3.61 nM
Kd (HLA-A*03:01; [5]): 59.1 nM
Kd (HLA-A*11:01; [5]): 1.38 nM
Kd (HLA-A*33:01; [5]): 163 nM
Kd (HLA-A*68:01; [5]): 1.92 nM

ATYLGPQFCK
Kd (HLA-A*11:01; source organism: Mammarenavirus lassaense): 3.25 nM

CAAYYFMKFR
Kd (HLA-A*31:01; [4]): 10.9 nM
Kd (HLA-A*03:01; [4]): 209 nM
Kd (HLA-A*11:01; [4]): 65 nM
Kd (HLA-A*33:01; [4]): 141 nM
Kd (HLA-A*68:01; [4]): 70.5 nM

DAYNIADAAR
Kd (HLA-A*31:01; [5]): 19.2 nM
Kd (HLA-A*03:01; [5]): 16000 nM
Kd (HLA-A*11:01; [5]): 613 nM
Kd (HLA-A*33:01; [5]): 0.812 nM
Kd (HLA-A*68:01; [5]): 1.28 nM

DITFLRPVLK
Kd (HLA-A*31:01; [5]): 259 nM
Kd (HLA-A*03:01; [5]): 157 nM
Kd (HLA-A*11:01; [5]): 72.1 nM
Kd (HLA-A*33:01; [5]): 5840 nM
Kd (HLA-A*68:01; [5]): 42.3 nM

DKYGWLCKMH
Kd (HLA-A*31:01; [6]): ≥ 59200 nM
Kd (HLA-A*03:01; [6]): ≥ 70000 nM
Kd (HLA-A*11:01; [6]): ≥ 69700 nM
Kd (HLA-A*33:01; [6]): ≥ 70000 nM
Kd (HLA-A*68:01; [6]): ≥ 70100 nM

DLKWARFPK
Kd (HLA-A*31:01; [4]): 391 nM
Kd (HLA-A*03:01; [4]): 5640 nM
Kd (HLA-A*11:01; [4]): 714 nM
Kd (HLA-A*33:01; [4]): 20 nM
Kd (HLA-A*68:01; [4]): 51.5 nM

DSYTQVCDHR
Kd (HLA-A*33:01; [7]): 1820 nM

ECLRRRVTR
Kd (HLA-A*33:01; [3]): 244 nM

ECYVQRFFLR
Kd (HLA-A*31:01; [8]): 6 nM
Kd (HLA-A*03:01; [8]): 17600 nM
Kd (HLA-A*33:01; [8]): 44.9 nM
Kd (HLA-A*68:01; [8]): 279 nM

EECLRRRVTR
Kd (HLA-A*33:01; [3]): 779 nM

FADNDRQDIY
Kd (HLA-A*31:01; [5]): ≥ 70000 nM
Kd (HLA-A*03:01; [5]): ≥ 70100 nM
Kd (HLA-A*11:01; [5]): ≥ 46000 nM
Kd (HLA-A*33:01; [5]): ≥ 70000 nM
Kd (HLA-A*68:01; [5]): 1250 nM

FFAYVMNIER
Kd (HLA-A*31:01; [5]): 104 nM
Kd (HLA-A*03:01; [5]): 1120 nM
Kd (HLA-A*11:01; [5]): 10800 nM
Kd (HLA-A*33:01; [5]): 15 nM
Kd (HLA-A*68:01; [5]): 3.22 nM

FIHMVRCCK
Kd (HLA-A*31:01; [5]): 421 nM
Kd (HLA-A*03:01; [5]): 267 nM
Kd (HLA-A*11:01; [5]): 2010 nM
Kd (HLA-A*33:01; [5]): 360 nM
Kd (HLA-A*68:01; [5]): 6.32 nM

FLELKRGIYK
Kd (HLA-A*31:01; [5]): 120 nM
Kd (HLA-A*03:01; [5]): 4.84 nM
Kd (HLA-A*11:01; [5]): 1.19 nM
Kd (HLA-A*33:01; [5]): 945 nM
Kd (HLA-A*68:01; [5]): 89.1 nM

FLMAFANQIH
Kd (HLA-A*31:01; [9]): ≥ 70000 nM
Kd (HLA-A*03:01; [9]): 11800 nM
Kd (HLA-A*11:01; [9]): ≥ 69700 nM
Kd (HLA-A*33:01; [9]): ≥ 23800 nM
Kd (HLA-A*68:01; [9]): ≥ 31800 nM

FLSGRGLGK
Kd (HLA-A*03:01; [7]): 91 nM

FSGKEPISDY
Kd (HLA-A*31:01; [5]): ≥ 70000 nM
Kd (HLA-A*03:01; [5]): ≥ 70100 nM
Kd (HLA-A*11:01; [5]): ≥ 52400 nM
Kd (HLA-A*33:01; [5]): ≥ 70000 nM
Kd (HLA-A*68:01; [5]): ≥ 67000 nM

FTTNIWLKLR
Kd (HLA-A*33:01; [1]): 68.3 nM
Kd (HLA-A*68:01; [1]): 28.6 nM

FTTNIWMKFR
Kd (HLA-A*31:01; [3]): 1.57 nM
Kd (HLA-A*33:01; [3]): 29.5 nM
Kd (HLA-A*68:01; [3]): 1.73 nM

FWKLVDRER
Kd (HLA-A*33:01; [10]): 44.6 nM

GFDAWFSQR
Kd (HLA-A*31:01; [4]): 131 nM
Kd (HLA-A*03:01; [4]): 17800 nM
Kd (HLA-A*11:01; [4]): ≥ 29900 nM
Kd (HLA-A*33:01; [4]): 654 nM
Kd (HLA-A*68:01; [4]): 4270 nM

GLILFVLALY
Kd (HLA-A*31:01; [5]): ≥ 43900 nM
Kd (HLA-A*03:01; [5]): ≥ 22000 nM
Kd (HLA-A*11:01; [5]): 7250 nM
Kd (HLA-A*33:01; [5]): ≥ 26800 nM
Kd (HLA-A*68:01; [5]): 457 nM

GVTATITPR
Kd (HLA-A*31:01; [3]): 14.9 nM

GVVFLHVTY
Kd (HLA-A*31:01; [4]): 15300 nM
Kd (HLA-A*03:01; [4]): 8170 nM
Kd (HLA-A*11:01; [4]): 3400 nM
Kd (HLA-A*33:01; [4]): ≥ 77700 nM
Kd (HLA-A*68:01; [4]): ≥ 60600 nM

HAKYMVTDK
Kd (HLA-A*31:01; [5]): 5060 nM
Kd (HLA-A*03:01; [5]): 452 nM
Kd (HLA-A*11:01; [5]): 5810 nM
Kd (HLA-A*33:01; [5]): 14300 nM
Kd (HLA-A*68:01; [5]): 180 nM

HILHAYCGIK
Kd (HLA-A*31:01; [5]): 13500 nM
Kd (HLA-A*03:01; [5]): 229 nM
Kd (HLA-A*11:01; [5]): 1390 nM
Kd (HLA-A*33:01; [5]): ≥ 70000 nM
Kd (HLA-A*68:01; [5]): 2740 nM

IGQMFETTMR
Kd (HLA-A*33:01; [1]): 1630 nM

IIKLPTLFGR
Kd (HLA-A*31:01; [5]): 0.251 nM
Kd (HLA-A*03:01; [5]): 89.2 nM
Kd (HLA-A*11:01; [5]): 137 nM
Kd (HLA-A*33:01; [5]): 17.3 nM
Kd (HLA-A*68:01; [5]): 69.6 nM

IINFTISMR
Kd (HLA-A*31:01; [5]): 2.23 nM
Kd (HLA-A*03:01; [5]): 41.3 nM
Kd (HLA-A*11:01; [5]): 49.2 nM
Kd (HLA-A*33:01; [5]): 98.1 nM
Kd (HLA-A*68:01; [5]): 3.79 nM

ILRNYLRLY
Kd (HLA-A*31:01; [5]): 8270 nM
Kd (HLA-A*03:01; [5]): 648 nM
Kd (HLA-A*11:01; [5]): 4540 nM
Kd (HLA-A*33:01; [5]): 3020 nM
Kd (HLA-A*68:01; [5]): ≥ 32200 nM

ILSKWHTSAR
Kd (HLA-A*31:01; [5]): 126 nM
Kd (HLA-A*03:01; [5]): 36.3 nM
Kd (HLA-A*11:01; [5]): 3550 nM
Kd (HLA-A*33:01; [5]): 399 nM
Kd (HLA-A*68:01; [5]): 844 nM

ISNMLSIINK
Kd (HLA-A*03:01; [10]): 142 nM
Kd (HLA-A*11:01; [10]): 113 nM

ITAKETLYR
Kd (HLA-A*31:01; [4]): 193 nM
Kd (HLA-A*03:01; [4]): 131 nM
Kd (HLA-A*11:01; [4]): 18.3 nM
Kd (HLA-A*33:01; [4]): 1080 nM
Kd (HLA-A*68:01; [4]): 15.5 nM

KATTQIAPK
Kd (HLA-A*31:01; [5]): 86.2 nM
Kd (HLA-A*03:01; [5]): 46 nM
Kd (HLA-A*11:01; [5]): 4.81 nM
Kd (HLA-A*33:01; [5]): ≥ 39100 nM
Kd (HLA-A*68:01; [5]): 7050 nM

KFNDYRKQMY
Kd (HLA-A*31:01; [5]): 196 nM
Kd (HLA-A*03:01; [5]): 4820 nM
Kd (HLA-A*11:01; [5]): ≥ 22400 nM
Kd (HLA-A*33:01; [5]): ≥ 59300 nM
Kd (HLA-A*68:01; [5]): ≥ 32400 nM
